Laboratory results taken from article doi:10.1101/2021.11.23.469700, “Zika virus-specific IgM elicited during pregnancy exhibits ultrapotent neutralization” (bioRxiv, 2021).

Assays:
DENV4 (H241) virion = DENV4 (H241) virion (Dengue virus 4 H241, UniProt Q58HT7, strain); assay: ELISA; virion capture ELISA: virions captured on plates coated with 4G2 antibody; purified mAbs in 5-fold serial dilutions from 100 ug/mL, 1 hour at 37°C; HRP anti-human Ig; OD450; conditions: one partner purified
DENV1 (Hawaii) virion = target: T1, DENV1 (Hawaii) virion (Dengue virus 1 Hawaii (BEI NR-82), UniProt B5AGU1, strain); assay: as above; conditions: one partner purified
T1 construct: also called DENV1 (Hawaii NR-82)

[1] = target: DENV3 (Philippines) virion (Dengue virus 3 Philippines (H87/1956 …, UniProt P27915)); assay: as above; conditions: one partner purified
[2] = target: T2, whole Zika PRVABC59 virion (Zika virus PRVABC59, UniProt A0A0X1LH65, strain); assay: as above; conditions: one partner purified
T2 construct: also called ZIKV PRVABC59; whole ZIKV virion; source: ZIKV PRVABC59 from BEI, grown in Vero-81 cells, filtered cell supernatant

[3] = target: DENV2 (New Guinea C) virion (Dengue virus 2 New Guinea C, UniProt P14340, strain); assay: as above; conditions: one partner purified
[4] = target: T3, ZIKV H/PF/2013 envelope (E) protein dimer (Zika virus H/PF/2013, UniProt A0A024B7W1, strain); assay: ELISA; recombinant E protein ELISA: DH1017 mAbs immobilised at 0.5 ug/mL in TBS; his-tagged recombinant E protein in 2-fold dilutions from 20 ug/mL, 1 hour at 37°C; anti-his HRP; OD450; conditions: both partners purified
T3 construct: also called ZIKV E dimer; his-tagged recombinant E protein dimer; source: recombinant

[5] = target: T4, ZIKV H/PF/2013 envelope (E) protein monomer (Zika virus H/PF/2013, UniProt A0A024B7W1, strain); assay: as above; conditions: both partners purified
T4 construct: also called ZIKV E monomer

Jo-1 = Jo-1 (Bos taurus (assumed), UniProt Q2KI84); assay: ELISA; autoantigen ELISA: purified antigens coated in 0.1M sodium bicarbonate; mAbs in 3-fold serial dilutions from 10 ug/ml, 1 hour at room temperature; HRP anti-human IgG, IgM and H+L; conditions: both partners purified
Sequence of Jo-1 (P12081 whole entry): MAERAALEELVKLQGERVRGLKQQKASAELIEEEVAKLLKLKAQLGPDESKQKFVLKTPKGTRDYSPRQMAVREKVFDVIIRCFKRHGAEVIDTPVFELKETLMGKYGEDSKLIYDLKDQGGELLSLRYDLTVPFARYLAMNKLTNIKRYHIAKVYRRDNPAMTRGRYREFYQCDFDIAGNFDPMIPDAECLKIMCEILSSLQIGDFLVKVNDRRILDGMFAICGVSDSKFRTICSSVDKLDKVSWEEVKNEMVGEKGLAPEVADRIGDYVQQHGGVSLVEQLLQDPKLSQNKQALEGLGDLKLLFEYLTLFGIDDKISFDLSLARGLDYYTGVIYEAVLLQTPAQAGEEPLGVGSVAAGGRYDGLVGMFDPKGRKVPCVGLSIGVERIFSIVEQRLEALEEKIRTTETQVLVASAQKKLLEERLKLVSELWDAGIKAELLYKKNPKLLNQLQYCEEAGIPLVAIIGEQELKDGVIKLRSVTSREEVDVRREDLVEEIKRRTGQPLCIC

SSB = target: T5, SSB (Bos taurus (assumed), UniProt P10881); assay: as above; conditions: both partners purified
T5 construct: source: bought: Immunovision, SSB-3000
T5 sequence (P05455 whole entry): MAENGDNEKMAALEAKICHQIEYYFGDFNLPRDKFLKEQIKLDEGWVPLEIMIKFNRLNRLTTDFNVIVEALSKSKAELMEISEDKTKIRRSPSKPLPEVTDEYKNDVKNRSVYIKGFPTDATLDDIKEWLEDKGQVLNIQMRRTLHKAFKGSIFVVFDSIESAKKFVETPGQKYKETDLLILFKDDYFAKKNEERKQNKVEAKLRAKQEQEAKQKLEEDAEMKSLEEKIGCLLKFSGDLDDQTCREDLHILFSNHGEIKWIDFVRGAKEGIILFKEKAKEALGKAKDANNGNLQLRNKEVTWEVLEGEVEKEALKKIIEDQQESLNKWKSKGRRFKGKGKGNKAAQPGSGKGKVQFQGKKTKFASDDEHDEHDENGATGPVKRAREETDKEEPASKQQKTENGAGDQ

Scl-70 = target: T6, Scl-70 (Bos taurus (assumed), UniProt A0AAA9TV68); assay: as above; conditions: both partners purified
T6 construct: source: bought: Immunovision, SCL-3000
T6 sequence (P11387 whole entry): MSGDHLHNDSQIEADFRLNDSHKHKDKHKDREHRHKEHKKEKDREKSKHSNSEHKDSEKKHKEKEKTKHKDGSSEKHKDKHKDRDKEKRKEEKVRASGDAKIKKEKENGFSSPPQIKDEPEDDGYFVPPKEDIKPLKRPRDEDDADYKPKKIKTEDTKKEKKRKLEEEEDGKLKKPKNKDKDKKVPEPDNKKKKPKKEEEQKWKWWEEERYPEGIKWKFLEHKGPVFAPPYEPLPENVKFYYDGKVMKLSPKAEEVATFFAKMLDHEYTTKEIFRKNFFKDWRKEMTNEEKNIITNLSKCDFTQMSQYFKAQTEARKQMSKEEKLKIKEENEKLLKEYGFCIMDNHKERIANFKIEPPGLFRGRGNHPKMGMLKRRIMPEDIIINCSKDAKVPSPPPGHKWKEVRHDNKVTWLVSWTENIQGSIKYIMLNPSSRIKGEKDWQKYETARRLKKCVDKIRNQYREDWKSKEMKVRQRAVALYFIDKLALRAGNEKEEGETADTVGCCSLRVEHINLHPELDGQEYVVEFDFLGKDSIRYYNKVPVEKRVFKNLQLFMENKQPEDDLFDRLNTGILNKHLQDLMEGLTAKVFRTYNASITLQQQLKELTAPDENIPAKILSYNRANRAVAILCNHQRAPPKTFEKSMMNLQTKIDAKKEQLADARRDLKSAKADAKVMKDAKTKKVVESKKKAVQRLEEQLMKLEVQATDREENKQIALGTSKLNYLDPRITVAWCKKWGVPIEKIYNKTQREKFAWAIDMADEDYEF

Centromere B = target: T7, Centromere B (Homo sapiens, UniProt P07199); assay: as above; conditions: both partners purified
T7 construct: source: bought: Prospec, PRO-390
T7 sequence (P07199 whole entry): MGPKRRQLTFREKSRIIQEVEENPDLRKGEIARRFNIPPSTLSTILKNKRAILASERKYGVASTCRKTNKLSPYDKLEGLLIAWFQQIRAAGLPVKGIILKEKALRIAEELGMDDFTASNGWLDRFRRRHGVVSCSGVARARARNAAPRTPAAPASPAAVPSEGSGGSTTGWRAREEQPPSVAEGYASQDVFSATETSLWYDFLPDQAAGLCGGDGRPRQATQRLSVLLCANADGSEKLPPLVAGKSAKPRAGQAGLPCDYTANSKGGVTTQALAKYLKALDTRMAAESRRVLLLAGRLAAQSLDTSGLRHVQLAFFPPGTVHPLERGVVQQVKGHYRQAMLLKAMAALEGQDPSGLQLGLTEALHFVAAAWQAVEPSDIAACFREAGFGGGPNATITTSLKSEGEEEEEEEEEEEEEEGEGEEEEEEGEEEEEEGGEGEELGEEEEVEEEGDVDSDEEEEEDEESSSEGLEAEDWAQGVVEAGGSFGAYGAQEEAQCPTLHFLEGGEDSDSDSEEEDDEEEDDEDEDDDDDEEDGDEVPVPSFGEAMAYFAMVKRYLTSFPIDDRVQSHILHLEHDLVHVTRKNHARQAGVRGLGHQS

[6] = target: T3, ZIKV H/PF/2013 envelope (E) protein …; assay: BLI; Octet Red96, 25°C, PBS pH 7.4; mAb captured on anti-human Ig AR2G tips; ZIKV E protein dimer 50-0.78 ug/mL; fast kinetic components of the heterogeneous ligand model fit; single measurement; conditions: both partners purified
ZIKV H/PF/2013 virion = target: T8, ZIKV H/PF/2013 virion (Zika virus H/PF/2013, strain); assay: cryo-EM structure; purified virus and DH1017.Fab incubated on ice for 2 hours; single particle reconstruction with icosahedral symmetry, 4104 particles, 5.3 Å; conditions: both partners purified
T8 construct: also called ZIKV H/PF/2013 particles; Zika virion; copies: 180 +

B1: DH1017.IgM (antibody, V domains shown)
VH: QVQLQESGPGLVKPSQTLSLTCAVSGGSISSGDSYWSWIRQHPGKGLEWIGSIYYSGSTYYNPSLKSRVTIPIDTSKNQFSLKLSSVTAADTAVYYCARHVGDLRVNDAFDIWGQGTMVTVSS
VL: QSVLTQPPSVSAAPGQKVTISCSGSSSNIGNNFVSWYQRLPGTPPKLLIYDSDKRPSGIPDRFSGSKSGTSATLGITGLQTGDEGDYYCGTWDRSLSVVVFGGGTKLTVL
notes: also called mAb DH1017.IgM; copies: 10 + 10
DENV4 (H241) virion
  binding result: no binding (tested: 100 ug/mL (start of the dilution series))
DENV1 (Hawaii) virion
  binding result: no binding (tested: 100 ug/mL (start of the dilution series))
[1]
  binding result: no binding (tested: 100 ug/mL (start of the dilution series))
[2]
  EC50: 22 pM
[3]
  binding result: no binding (tested: 100 ug/mL (start of the dilution series))
[4]
  EC50: 91 pM
[5]
  EC50: 202 pM
Jo-1
  binding result: no binding (tested: 10 ug/ml (start of the dilution series))
SSB
  binding result: no binding (tested: 10 ug/ml (start of the dilution series))
Scl-70
  binding result: no binding (tested: 10 ug/ml (start of the dilution series))
Centromere B
  binding result: no binding (tested: 10 ug/ml (start of the dilution series))
[6]
  Kd: 106000 pM
  koff: 0.0103 s⁻¹

B2: DH1017.IgG (antibody, V domains shown)
VH: B1 VH
VL: B1 VL
notes: IgG1; also called recombinant DH1017.IgG; IgG1 isoform of DH1017; source: Expi 293i cells, co-transfected heavy and light chain plasmids, purified (Protein A resin)
[2]
  EC50: 112 pM
[4]
  EC50: 929 pM
[5]
  EC50: 463 pM
Jo-1
  binding result: no binding (tested: 10 ug/ml (start of the dilution series))
SSB
  binding result: no binding (tested: 10 ug/ml (start of the dilution series))
Scl-70
  binding result: no binding (tested: 10 ug/ml (start of the dilution series))
Centromere B
  binding result: no binding (tested: 10 ug/ml (start of the dilution series))
[6]
  Kd: 123000 pM
  koff: 0.0091 s⁻¹

B3: DH1017.Fab (Fab, V domains shown)
VH: B1 VH
VL: B1 VL
notes: also called DH1017 Fab fragment; Fab DH1017; source: Expi 293i cells, co-transfected heavy and light chain plasmids, purified (LambdaFabSelect agarose beads)
ZIKV H/PF/2013 virion
  stoichiometry N: 1.5 Fab per asymmetric unit
[4]
  EC50: 25100 pM
[5]
  EC50: 1240 pM
Jo-1
  binding result: no binding (tested: 10 ug/ml (start of the dilution series))
SSB
  binding result: no binding (tested: 10 ug/ml (start of the dilution series))
Scl-70
  binding result: no binding (tested: 10 ug/ml (start of the dilution series))
Centromere B
  binding result: no binding (tested: 10 ug/ml (start of the dilution series))
